The text below walks through data of article PMC4622054.

The target of the assay is Human FcRn (hFcRn), soluble α-chain/β2m heterodimer, P55899;P61769. Put plainly: BLI (in vitro BLI-based FcRn platform). The settings on record: chain shown with the change;, read off a plot.

B1: CDA1 (actoxumab), fully human IgG1 mAb CDA (with HCV VH CDRs): VH CDR1-3 of CDA1 replaced by VH CDRs of HCV1; residues not printed (protein)
chain 1: QVQLVESGGGVVQPGRSLRLSCAASGFTFNNYGMHWVRQAPGKGLEWVALIWFDENNKDYTDSVKGRFTISRDNSKNTLYLQMNSLRAEDTAVYYCARDISLVRDAFIYFDFWGQGTVVTVSS
chain 2: DIQMTQSPSSVSASVGDRVTITCRASQGISSWLAWYQHKPGKAPKLLIYAASSLQSGVPSRFSGSGSGTDFTLTISSLQPEDFATYYCQQANSFPWTFGQGTKVEIK
As for B1, the other: Predicted Human t1/2, β (parent: est. 690) is 15 days.

B2: HCV1, fully human IgG1 mAb HCV (with CDA VH CDRs): VH CDR1-3 of HCV1 replaced by VH CDRs of CDA1; residues not printed (protein)
chain 1: EVQLLESGGGVVQPGRSLRLSCTASGFSFSNYGMHWVRQTPGKGLEWLAVIWYDGSNEYYADSVRGRFTISRDNSKNTLFLQMNSLKTEDTAMYYCARWGMVRGVIDVFDIWGLGTLVTVSS
chain 2: ELTLTQSPATLSLSPGERATLSCRASQSVSSYLAWYQQKPGQAPRLLIYDASNRATGIPARFSGSGSGTDFTLTISSLEPEDFAVYYCQQRSNWITFGQGTRLEIK
As for B2, the other: Predicted Human t1/2, β (parent: est. 270) is 22.9 days.

B3: HCV1, fully human IgG1 mAb HCV (with CDB Vk CDRs): Vk CDR1-3 of HCV1 replaced by Vk CDRs of CDB1; residues not printed (protein)
chain 1: EVQLLESGGGVVQPGRSLRLSCTASGFTFNNYGMHWVRQTPGKGLEWLAVIWFDENNKYYADSVRGRFTISRDNSKNTLFLQMNSLKTEDTAMYYCARDISLVRDAFIYFDFWGLGTLVTVSS
chain 2: ELTLTQSPATLSLSPGERATLSCRASQSVSSSYLAWYQQKPGQAPRLLIYGASNRATGIPARFSGSGSGTDFTLTISSLEPEDFAVYYCQQYGSSTWTFGQGTRLEIK
Regarding B3, the other: Predicted Human t1/2, β (parent: est. 270) was 13.3 days.
